B1: truncated Myc-tagged DIX domain of DVL2 [human] / Dishevelled-2 (DVL2), full-length, Flag-tagged [human] (parent)
chain 1: VGETKVIYHLDEEETPYLVKIPVPAERITLGDFKSVLQRPAGAKYFFKSMDQDFGVVKEEISDDNARLPCFNGRVVSWLVSSD
chain 2: MAGSSTGGGGVGETKVIYHLDEEETPYLVKIPVPAERITLGDFKSVLQRPAGAKYFFKSMDQDFGVVKEEISDDNARLPCFNGRVVSWLVSSDNPQPEMAPPVHEPRAELAPPAPPLPPLPPERTSGIGDSRPPSFHPNVSSSHENLEPETETESVVSLRRERPRRRDSSEHGAGGHRTGGPSRLERHLAGYESSSTLMTSELESTSLGDSDEEDTMSRFSSSTEQSSASRLLKRHRRRRKQRPPRLERTSSFSSVTDSTMSLNIITVTLNMEKYNFLGISIVGQSNERGDGGIYIGSIMKGGAVAADGRIEPGDMLLQVNDMNFENMSNDDAVRVLRDIVHKPGPIVLTVAKCWDPSPQAYFTLPRNEPIQPIDPAAWVSHSAALTGTFPAYPGSSSMSTITSGSSLPDGCEGRGLSVHTDMASVTKAMAAPESGLEVRDRMWLKITIPNAFLGSDVVDWLYHHVEGFPERREARKYASGLLKAGLIRHTVNKITFSEQCYYVFGDLSGGCESYLVNLSLNDNDGSSGASDQDTLAPLPGATPWPLLPTFSYQYPAPHPYSPQPPPYHELSSYTYGGGSASSQHSEGSRSSGSTRSDGGAGRTGRPEERAPESKSGSGSESEPSSRGGSLRRGGEASGTSDGGPPPSRGSTGGAPNLRAHPGLHPYGPPPGMALPYNPMMVVMMPPPPPPVPPAVQPPGAPPVRDLGSVPPELTASRQSFHMAMGNPSEFFVDVM

Variants of: B1
Experiment: Co-IP (IP: Flag, immunoblot for Myc-DIX) with densitometry
Conditions: with Dishevelled-2 (DVL2), HEK293T cells, co-immunoprecipitated DIX levels normalized to immunoprecipitated DVL2 levels, three independent experiments, parent: 4.7, read off a plot

response | Variant
1.1 | chain 1 K58R
